Bridges are numbered along the chain shown (N, C = ends). Where no end group is shown, it is not given here. rhodamine = 5(6)-carboxytetramethylrhodamine label attached at the N-terminus
Tests used:
[1] = Viscoelastic measurements of functionalized SAP hydrogels (gel capacity); format: physicochemical; conditions: 15 mg/mL in 1×DPBS, 2.5 rad/s
Experimental: (§1) Rheological characterization. All peptide samples were prepared at 10 mM peptide, except for those used to assess the effect of SAP functionalization with respect to weight (15 mg/mL). Viscous and viscoelastic properties were assessed using a stress-controlled rheometer (TA Instruments AR-02) equipped with a Peltier plate to control temperature and a 20 mm diameter parallel plate geometry. Unless otherwise stated all measurements were taken at an angular frequency of 2.5 rad s^−1, strain of 0.5%, and temperature of 37° C. Measurements were performed with a gap height of 1000 μm and repeated three times (except for step-strain tests) to ensure reproducibility. To prevent water evaporation, mineral oil was wrapped around the edge of the geometry at the air-sample interface. For viscoelastic measurements the apparatus was used in oscillatory mode. […] The dynamic moduli of the hydrogels were measured as a function of frequency in the range 0_25-100 rad s^−1 at a strain of 0.5%. Continuous step-strain oscillations were used to monitor hydrogel healing through disruption (3 min, 100% strain) and recovery (15 min. 0.5% strain) cycles (n=3). Temperature sweeps were measured by increasing the apparatus temperatures from 21-40° C. at a ramp rate of 0.5° C./min. […] The viscosity of the samples was measured as a function of shear rate in the range 0.1-10 s^−1 (5% tolerance.

Thermolysin [2] = biological target: T1, Thermolysin (Bacillus thermoproteolyticus, UniProt P00800); assay: Time course rheological analysis of bulk gelation after thermolysin addition; format: physicochemical; set-up: purchased Promega V400A; conditions: 10 mM in 1×DPBS, thermolysin 1:4500 added at t=40 min, 37° C.
T1 sequence (P00800 233-548): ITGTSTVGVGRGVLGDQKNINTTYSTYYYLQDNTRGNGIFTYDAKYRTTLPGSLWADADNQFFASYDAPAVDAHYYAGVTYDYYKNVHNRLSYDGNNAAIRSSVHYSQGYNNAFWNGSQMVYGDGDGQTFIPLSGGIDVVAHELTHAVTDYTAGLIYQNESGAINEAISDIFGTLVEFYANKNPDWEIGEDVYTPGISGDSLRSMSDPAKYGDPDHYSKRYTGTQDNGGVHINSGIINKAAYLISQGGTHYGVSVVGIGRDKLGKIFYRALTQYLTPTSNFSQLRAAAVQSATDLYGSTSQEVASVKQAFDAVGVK
Experimental: as §1

[3] = biological target: T2, MMP-9 (recombinant human catalytic domain) (Homo sapiens, UniProt P14780); assay: In vitro enzyme cleavage of cyclic progelator by MMP-9; format: biochemical; conditions: 1:1000 enzyme/substrate, 5 hr; denatured enzyme elicited no response
T2 construct: MMP-9 (recombinant human catalytic domain); purchased Enzo Life Sciences BML-SEro360
T2 sequence (P14780 107-444 limits assumed): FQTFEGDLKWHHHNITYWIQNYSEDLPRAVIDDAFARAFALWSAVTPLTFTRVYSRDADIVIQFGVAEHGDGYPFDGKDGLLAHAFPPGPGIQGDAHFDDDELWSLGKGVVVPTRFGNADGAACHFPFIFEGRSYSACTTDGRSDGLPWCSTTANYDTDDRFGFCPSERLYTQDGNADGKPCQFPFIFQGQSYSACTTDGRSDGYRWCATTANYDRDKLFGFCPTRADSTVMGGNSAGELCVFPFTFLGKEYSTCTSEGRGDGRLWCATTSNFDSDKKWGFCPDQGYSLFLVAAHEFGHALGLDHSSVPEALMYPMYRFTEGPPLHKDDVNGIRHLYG
From the text: (§2) Transmission electron microscopy (TEM).
(§3) In vitro enzyme cleavage of cyclic peptide progelator. […] Control samples utilized denatured enzymes under the same conditions.

[4] = biological target: T3, Porcine pancreatic elastase (Sus scrofa, UniProt P00772); assay: In vitro enzyme cleavage of cyclic progelator by elastase; format: biochemical; conditions: 1:250 enzyme/substrate, 5 hr; denatured enzyme elicited no response
T3 construct: purchased EMD Millipore 3246821000U
T3 sequence (P00772 27-266): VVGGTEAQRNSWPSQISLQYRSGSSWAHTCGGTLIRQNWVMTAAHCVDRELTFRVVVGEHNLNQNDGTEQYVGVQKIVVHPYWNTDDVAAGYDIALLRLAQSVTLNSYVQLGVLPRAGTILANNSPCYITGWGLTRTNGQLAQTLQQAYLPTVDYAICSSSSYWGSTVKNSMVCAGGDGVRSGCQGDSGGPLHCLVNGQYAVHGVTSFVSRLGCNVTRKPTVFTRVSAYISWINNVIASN
From the text: as §2, §3

Thermolysin [5] = biological target: T1, Thermolysin; conditions: 1:4500 enzyme/substrate
Experimental: General information. […] Thermolysin (V400A) was acquired from Promega, as a lyophilized powder.
In vitro enzyme cleavage of cyclic peptide progelator. Unless otherwise stated, enzyme cleavage experiments were performed on progelator at a final concentration of 500 μM in 1× enzyme cleavage buffers. […] Thermolysin cleavages were performed at 1:4500 enzyme/substrate molar ratio in 1× buffer (1×DPBS, pH 7.4) for 15 min. […] Control samples utilized denatured enzymes under the same conditions. […] Thermolysin was inactivated by incubation with 10% (v/v) EDTA (0.5 M, pH 8.0)

red blood cells (RBCs) = assay: Hemolysis of red blood cells (RBCs); format: cell-based, human; conditions: positive (normalization) control 1% Triton X-100; isolated RBCs, 1 hr incubation; n=4
Experimental: (§4) Hemocompatibility analysis.
Hemolysis assay. Acute toxicity of cyclic peptide progelator was measured with a RBC hemolysis assay specific to biomacromolecular drug analysis, as previously described.^73 Averages (n=4) and standard error of the mean (SEM) for absorbance measurements (at 540 nm) were plotted.

whole human blood [6] = assay: Activated clotting times (ACT) with whole human blood; conditions: positive control, collagen 0.095 mg/mL
Experimental: as §4
Activated clotting times (ACT) with whole human blood. A Hemochron 801 instrument calibrated with an electronic system verification (ESV) device was used to measure activated clotting time (ACT) of whole human blood. Activated clotting times (ACT) were determined using recalcified citrated whole human blood to minimize variability in starting time points for clotting in all assays.^71 To each Hemochron P214 tube with glass beads was added 4 μL CaCl2 (1.1 M) and 36 μL peptide stock or additive (12.2× final blood concentration). Samples were mixed thoroughly for 30 s to soak the glass beads and incubated 30 s at 37° C. Citrated whole human blood (400 μL) was then added (t=0 s), mixed by hand for 10 s, and added to the instrument. Time points at which the magnet was displaced by clot formation were recorded by the instrument. Collagen (0.095 mg/mL) was used as a positive control to […] clotting time. Vehicle (1×DPBS) served as a standard for blood without additive. Samples without calcium, serving as the negative control, exceeded instrument maximum time range (>1500 sec). Each experiment was performed n=6 times with averages and standard error of the mean (SEM) plotted.

whole human blood [7] = assay: Whole blood hemostasis kinetics (non-activated whole blood clotting assay); conditions: positive controls; recalcified whole human blood
Experimental: as §4
Whole blood hemostasis kinetics. Changes to time-dependent hemostasis were monitored using a non-activated whole blood clotting assay.^72 Briefly, 100 μL of citrated whole human was mixed with 10 μL of peptide or collagen stock (11.5× final blood concentration) and 5 μL of CaCl2 (230 mM). Collagen (0.095 mg/mL) and glass coverslips were used as positive controls to increase clotting rates from an additive and contact initiated perspective, respectively. […] Aliquots (100 μL) were transferred to a 12-well TCP, covered, and incubated at r.t. for 5 min, 15 min, 30 min, and 45 min. Each sample was prepared in triplicate. At the end of each time point, RBCs not caught in the thrombus were lysed by gently adding 3 mL distilled H2O and incubating for 5 min. Each well was sampled (200 μL), taking care not to disturb the clot, and transferred to a 96 well plate for analysis. Released hemoglobin from lysis was detected by measuring the absorbance at 405 nm (height 4.0 mm, 100 flashes) using a plate reader. Extent of clotting is inversely proportional to measured absorbance. Averages (n=3) and standard error of the mean (SEM) are plotted.

C(KFDF)3PLGLAGC (SEQ ID NO: 7) (CKFDFKFDFKFDFPLGLAGC) [KFDF (SEQ ID NO:1)Linear, modified linear SAP primed for cyclization, no fluorescent label]
gelling capacity (tanδ<1) and strain tolerance vs unmodified SAP [1]: no significant disruptive effects to gelling capacity

C(KLDL)3PLGLAGC (SEQ ID NO: 6) (CKLDLKLDLKLDLPLGLAGC) [KLDL (SEQ ID NO:5)Linear, modified linear SAP primed for cyclization, no fluorescent label]
gelling capacity (tanδ<1) and strain tolerance vs unmodified SAP [1]: no significant disruptive effects to gelling capacity

CKLDLKLDLKLDLPLGLAGC (SEQ ID NO:6) (disulfide 1-20) [KLDL (SEQ ID NO:5)Cyclic, unlabeled cyclized enzyme-responsive progelator]
time at which steady state of shear moduli (G′, G″) was reached (Thermolysin [2]): 200 min

Rho-KFDF (SEQ ID NO:1)Cyclic: rhodamine labeled cyclized KFDF progelator (SEQ ID NO:7) (rhodamine-CKFDFKFDFKFDFPLGLAGC; disulfide 1-20)
response to active MMP-9 cleavage (visual, TEM) [3]: induced visible aggregation in the reaction vial and entangled fibrous meshes by TEM | response to active elastase cleavage (visual, TEM) [4]: induced visible aggregation in the reaction vial and entangled fibrous meshes by TEM | response to thermolysin incubation (TEM) (Thermolysin [5]): induced fiber formation by TEM

Rho-KLDL (SEQ ID NO:5)Cyclic: rhodamine labeled cyclized KLDL progelator (SEQ ID NO:6) (rhodamine-CKLDLKLDLKLDLPLGLAGC; disulfide 1-20)
response to active MMP-9 cleavage (visual, TEM) [3]: induced visible aggregation in the reaction vial and entangled fibrous meshes by TEM | response to active elastase cleavage (visual, TEM) [4]: induced visible aggregation in the reaction vial and entangled fibrous meshes by TEM | response to thermolysin incubation (TEM) (Thermolysin [5]): induced fiber formation by TEM

Triton X-100 [1% Triton X-100]
% Hemolysis (red blood cells (RBCs)): 100.00%

collagen [reference compound]
effect on clot time vs vehicle (ACT) (whole human blood [6]): significant clot time reduction | Activated clotting time (ACT), Average Time (whole human blood [6]; whole human blood, n=6): 150 s | clot rate (hemostasis kinetics) (whole human blood [7]): increased the clot rate
